In a protein production outcome set (Wang et al. 2014):

Test: label from the status in PepcDB records

Row | Sequence | protein production
1 | MRRLNRKNNEALKKLNDRQRKVLYCIVREYIENKKPVSSQRVLEVSNIEFSSATIRNDMKKLEYLGYIYQPHTSAGRIPTDKGLRFYYEEMLKISKETSEADLAVETFKSMPLADPEKVLFLAGNLLARLTEGYVLIERPNTRDLKILRVMLIPVSEDYLIFSILTEFGVSKVTPIKTQERLNWEEIERQLNFLLRGRTVGEVLMGKIESLKGSGFLRLIESLIGETVERYLDAGLENLLKDETLTLEDIRNLLEEVKDQKFLESLVGEGITVRIGREIGRKKLEKFAVFSGKYFKGESPIGSVYLFTSKVTKYDRNHRVFEYILNRLSEYFTSTSRR | not failed
2 | MLVMKCSKCSAEAIYYAKYNGLYLCRDHFNEMIEGRVKKEIRKQVEFHGDDVTISVALSGGKDSSVTLFLLHKILGNRKNMKIKAFTVDEGIDGYRPSGLESAKRLCTSLGIDHETISFYDSYGLTLDSIVKTNPVKIPCAYCGPLRRKLINEMADKQDADYVALGLNLDDYSQSILMNVAKGDFDRFIRMSPQTDRKVGLVRRIAPLRTILEKEVVLYAVTNDIPFDSSWCPYYSRAQRNVFREVVNKLSEENPSTKFAILKFFDRVRENITTGHEEVKLKRCKICGAPTERDVCTACSSLQEVNEMMAEH | failed
3 | MPSEKQPQSKGNKMAILKLDEHLYISPQLTKADAEQIAQLGIKTIICNRPDREEESQPDFAQIKQWLEQAGVTGFHHQPVTARDIQKHDVETFRQLIGQAEYPVLAYCRTGTRCSLLWGFRRAAEGMPVDEIIRRAQAAGVNLENFRERLDNARV | not failed
4 | MCIGFCIDRLDKGFLYTCHSTICRLVAQNMKKSLIHIGDGLGLSLLIEPTGSKSWRFRYRFGGKPKMISFGAYPLVSLAEARKKRDEARKQVLDGINPSEHRKAQKLNLMSESENTFETIAREWHTMKSVCWSVGYASDIMEAFRNDIFPYVGKRSIAEVKPLELLNVMRKMEKRGALEKMKKVRQRCSEVFRYAIATGRAEYNPAADLSSALEVHQSHHFPFLKADEIPDFLRALEGYTGSKLVRIATKLLLITGVRTIELRAALWSEFDLGNAIWEIPEERMKKRRAHLVPLSTQALDLLNELKIMTGNYRYVFPGRNNPNKPMSEASINQVIKRIGFGGEVTGHGFRHMLSTILHEEGFDSSFIEIQLAHVDRNSIRGTYNHAQYLEKRRHMMQYYSDYVIGKDF | failed
5 | MSNSHLGTLCFIISLLGLANFSLSQTGLDDSTMQSLKSSLNLTSDVDWSNPNPCKWQSVQCDGSNRVTKIQLKQKGIRGTLPTNLQSLSELVILELFLNRISGPIPDLSGLSRLQTLNLHDNLFTSVPKNLFSGMSSLQEMYLENNPFDPWVIPDTVKEATSLQNLTLSNCSIIGKIPDFFGSQSLPSLTNLKLSQNGLEGELPMSFAGTSIQSLFLNGQKLNGSISVLGNMTSLVEVSLQGNQFSGPIPDLSGLVSLRVFNVRENQLTGVVPQSLVSLSSLTTVNLTNNYLQGPTPLFGKSVGVDIVNNMNSFCTNVAGEACDPRVDTLVSVAESFGYPVKLAESWKGNNPCVNWVGITCSGGNITVVNMRKQDLSGTISPSLAKLTSLETINLADNKLSGHIPDELTTLSKLRLLDVSNNDFYGIPPKFRDTVTLVTEGNANMGKNGPNKTSDAPGASPGSKPSGGSDGSETSKKSSNVKIIVPVVGGVVGALCLVGLGVCLYAKKRKRPARVQSPSSNMVIHPHHSGDNDDIKLTVAASSLNSGGGSDSYSHSGSAASDIHVVEAGNLVISIQVLRNVTNNFSEENILGRGGFGTVYKGELHDGTKIAVKRMESSVVSDKGLTEFKSEITVLTKMRHRHLVALLGYCLDGNERLLVYEYMPQGTLSQHLFHWKEEGRKPLDWTRRLAIALDVARGVEYLHTLAHQSFIHRDLKPSNILLGDDMRAKVSDFGLVRLAPDGKYSIETRVAGTFGYLAPEYAVTGRVTTKVDIFSLGVILMELITGRKALDETQPEDSVHLVTWFRRVAASKDENAFKNAIDPNISLDDDTVASIEKVWELAGHCCAREPYQRPDMAHIVNVLSSLTVQWKPTETDPDDVYGIDYDMPLPQVLKKWQAFEGLSQTADDSGSSSSAYGSKDNTQTSIPTRPSGFADSFTSVDGR | failed
6 | MQIYQLSGRNVEVTEPMREYVEEKLSRLDRYTDQITDARVTLTVRDVRNNERRNRVEVQLNVPGGIIRAEEHHADMYAAIDKASDVLERQLRKFKTRYMKQRQEGRPEPLPGPAEAEVNAQGSGAAMDDVSEFHPEIVRQKRFELRPMSAEDAVVQMEALGHDFYVFQDLQGQTGVVYRRRDGHYGLIGSS | failed
7 | MDNITFPSQGSLSSSNQTFDSQSAARNSNAPPEYVNQGLLLWNQTRERWVGKDKPNNPVDHNQGAKLNWNTATYDSLLGSNKLFPQPIPLTEMVDFLVDIWEQEGLYD | failed
8 | MNSPAHALTKPRRRTPRRAVRLARRALVGLTAAAILAGTGMGWVTYHGALDGITTSNALAGESGSVGDTENILIMGLDSRLDQHGNPLPEDVYQALHAGDETVGGYNANVLIVVHLPGDGGPATAFSIPRDDYVDLAGCPSGICKGKVKQAYGFAYQAEMEATESEEEDPATREQKAREAGRKAEIATVRNLLGIPIDHFVEVTLGAFFEIAKAVAPITVCLNDDTSDPYSGADFRKGVQQIDAAQAMAFVRQRRDINDENFTDLDRTRRQQAFLAALVSALRQSGALSSPSKLRGLLDVTKQNVALDAGFDLASFTKRASALTDAPPTLYTLPIKEFGQNAYGEDINIIDVPTIRKIVHDLVSKDDPATTTATPDKPELNGHGATLDVINGSTYTGLAAKLQTTFAADNFTEGQIGDAEALEPATTIDYGPGADAAAHSLATELGVTATPSDWVLADTVRLTIGTDFPGTDYLGADMFTSTTSGASESESYGPSETAELTPITTVAATATGTYTPAPTDLSQMTASGIPCVK | failed
9 | MDLICMYVFKGEESFGESIDVYGDYLIVKVGTEFLAVPKKSIKSVEDGRIVIGEFDEEEARELGRKWLEEKSKPVTLEELKSYGFGEEGE | not failed
10 | MKDLFSTDSQRYQQARPTYPPSLLQSLLQYIPERELAWDCGAGSGQLTHMLASYFDQVVGTDISQTQLSHAEYYDNISYQLQPAENTTFPDHCFDLITVAQAIHWFDFEAFYAEVRRTIKPSGILAVVGYGLIHVDDLEINAKVQHLYHQTLNGFWDAERHYVDELYQTIPFPFDEIEMPAFQIEAQWTLQQLLQYLNTWSAVQHYILEKNLDPVQQLLSKGRDLQDQVSIQFPVLLRVGRCS | failed
11 | MDFHIRKATNSDAEAIQHVATTSWHHTYQDLIPSDVQDDFLKRFYNVETLHNRISATPFAVLEQADKVIGFANFIELEKGKSELAAFYLLPEVTQRGLGTELLEVGMTLFHVPLPMFVNVEKGNETAIHFYKAKGFVQVEEFTEDFYGYPLETIRFNLNH | not failed
12 | MELKHGYYHLIAILTVAIWGLTFISTKVLINHGLTPQEIFFYRFLIAYLGIWVISPKRLFTNNWQDELWLVAGGIFGGSLYFFTENTALGITQASNVSFIICTAPLLTTILSLLFYKSEKASKGLIYGSLLALMGVGLIVFNGSFVLKISPIGDLLTLLAALSWAFYSLIIKKMAGRYPTIFITRKIFFYGVLTILPAFLLHPLHPDTAVLLQPAVLFNLLFLAVLASLICYVLWNVVLKQLGTVRASNYIYLNPLVTMIASFLILDEKITLVALGGAACIVCGVYWAEKK | failed
13 | MVRVFNHWFSPRKAFYFFAEETVLVVALLAGASLGPVAAQATGAAAPIAPAVLRAGLASLFFAGALYLGDLYDLHAAVRDRADGRRLLRALGVATIALAIADLSLDLVLPGWMLHRSVVLAAAGGALGVIGARALMPAVVGAPTRVLFLGAGPRARDLARAVEREADGLWAVAGFVVPEGSRAPAVVPPEALRQGPVLDVVRQARAQVVVVAMEDRREGLPVDALLALRTRGLRVVDDVGFAEATLQRIPLALVRPSALIFDEGFRVSRLTRTVKRALDLGVSAVGLLLGAPVMAAVAAAIWLSDGRPLLYSQERTGRGGRPYRIWKFRTMRRDAEKLGAAWATDDDPRVLPVGRFLRRARLDELPQLWNVLGGHMSLVGPRPERAVFLSELKARWPLFALRELVKPGLTGWAQLRYGYGSTMEEQAKKLEYDLYYIKNTTLFLDLVCLLATAKVVLLGRGAR | failed
14 | MKSRWIIGRSEYLDLAFHAWKQARQDETVIRIEVPQDSEHEFDLGVLDGLNPTDGAMFVAFDERFGNFKRVELMQAAMERGFKLESYIHSSAAIGTDVVIGLNTFVGAHAVVGHGCKIDYNTVIHAGAHLGTACRIKSSCWIENGVQIGAGVEIGGNSILRTGAIVRGGIKVGRSCELGWPRVYCEDVPAKTYFDARYHNPIHTFGT | failed
15 | MVKEPGGKHVLCVGAAVLDTLFRVADMPKGEGKVLPYEVLQIAEGMASSAAYAVHRMGGRASLWGAVGDDETGTRILRDLSESGIDTSGMTVAPGARSALSTIIIDNRGERLIVPFYDHRLHEKKRACTPEDIALFDAVLVDVRWPELALDVLTVARALGKPAILDGDVAPVETLEGLAPAATHIVFSEPAATRLTGLETVKDMLPVLHARYPQTFIAVTAGPAGCWWTEADDPTVHFQTTMQVEAVDTLAAGDIFHGTFALAMAEGMQSRAAVRLSSVAAALKCTVFGGRIGAPTREETEEAMRQWLERESEPALRAS | not failed
16 | MSAYPPGAAPSDPVDPVTLEAGQTAKVTRPTGRFMLGHPARLIALGFGSGLSPVSPGTVGTLLGWLSFIVISKWIDPTTWLWIIAGGFVIGIWACLRTARDMGVYDHGSMVWDEIVAFWLVLLFVMPTGFWGQFAAFVWFRFFDIVKPAPIRYYDRTLKGPGFTGAFGVMFDDIFAAFYTLLVFALWRSI | failed
17 | MQGTKIRLMVGGLLLAAASNNVQAEALQPDPAWQQGKLDNGFSWQLLATPQRPSDRIELRLIVNTGSLSENTQEVGFAHLLPRLALMSSASFTPAQLQSLWQQGIDNERPLPPAITSYDFTLYSLSLPNNRPDLLKDALAWLSDTAGNLAVSEQTVNAALNTATDPIATFPQNIQEPWWRYRLKGSSLIGHDPGQPVTQPVDVEKLKQFYQQWYTPDAMTLYVVGNVDSRSIAAQISKAFSELKGKRTAPAAVATLAPLPPEPVSLMNEQAAQDTLSLMWDTPWHPIQDSMALSRYWRSDLAREALFWHIKQVLEKNNQKNLKLGFDCRVQYQRAQCAIHLNTPVENLTANMTFVARELAALRANGLSQAEFDALMTQKNDQLSKLFATYARTDTDILMSQRLRSQQSGVVDIAPEQYQKLRQAFLSGLTLAELNRELKQQLSQDTTLVLMQPKGEPEVNVKALQEIYNGIMAPQTVAEEEVAPAEAVETAPVMPTTAQ | failed
18 | MAFTPFPPRQPTASARLPLTLMTLDDWALATITGADSEKYMQGQVTADVSQMAEDQHLLAAHCDAKGKMWSNLRLFRDGDGFAWIERRSVREPQLTELKKYAVFSKVTIAPDDERVLLGVAGFQARAALANLFSELPSKEKQVVKEGATTLLWFEHPAERFLIVTDEATANMLTDKLRGEAELNNSQQWLALNIEAGFPVIDAANSGQFIPQATNLQALGGISFKKGCYTGQEMVARAKFRGANKRALWLLAGSASRLPEAGEDLELKMGENWRRTGTVLAAVKLEDGQVVVQVVMNNDMEPDSIFRVRDDANTLHIEPLPYSLEE | not failed
19 | MLIKRLAFAIMTLVIMTSAGCGFKLQRSYQIPEQLNQLSLSSSDEYSELTRLVRERLRLNNVKIVDAANDVPVLRLITDSLERSTLSLYPTGNVAEYELIYFVEFAVALPGKEAQPFKIEIRRDYLDDPRTALAKSREMELLVKEMRIQAADRILQSMASTEVNLEHHHHHH | not failed
20 | MTKRVTCSACDGFGAEGGETGMVSCNSCEGNGFILKNQRSIFGTVQSQMLCQSCGGQGKQALEHHHHHH | failed
21 | MTKAIPWKINWQTMAFEYIGPQIEALLGWPQGSWKSVEDWATRMHPEDQEWVVNFCVKQSECGVDHEADYRALHRDGHYVWIRDVVHVVRDDSGEVEALIGFMFDISLEHHHHHH | not failed
